Laboratory results as given in paper PMC9424855, “Obligately aerobic human gut microbe expresses an oxygen resistant tungsten-containing oxidoreductase for detoxifying gut aldehydes” (Frontiers in Microbiology, 2022).
One block for each substance: values may come before it.

Legend:
[1] = biological target: Brevibacillus massiliensis tungsten-containing oxidoreductase (BmWOR) (Brevibacillus massiliensis)
BmWOR = BmWOR (Brevibacillus massiliensis, UniProt Z9C1J5R5O5); test: benzyl viologen reduction followed at […] nm; details: apparent Km; benzyl viologen 1 mM as electron acceptor, 50 mM HEPES pH 7.5, 35 °C, anaerobic
Chain of BmWOR (Z9C1J5R5O5 1-602): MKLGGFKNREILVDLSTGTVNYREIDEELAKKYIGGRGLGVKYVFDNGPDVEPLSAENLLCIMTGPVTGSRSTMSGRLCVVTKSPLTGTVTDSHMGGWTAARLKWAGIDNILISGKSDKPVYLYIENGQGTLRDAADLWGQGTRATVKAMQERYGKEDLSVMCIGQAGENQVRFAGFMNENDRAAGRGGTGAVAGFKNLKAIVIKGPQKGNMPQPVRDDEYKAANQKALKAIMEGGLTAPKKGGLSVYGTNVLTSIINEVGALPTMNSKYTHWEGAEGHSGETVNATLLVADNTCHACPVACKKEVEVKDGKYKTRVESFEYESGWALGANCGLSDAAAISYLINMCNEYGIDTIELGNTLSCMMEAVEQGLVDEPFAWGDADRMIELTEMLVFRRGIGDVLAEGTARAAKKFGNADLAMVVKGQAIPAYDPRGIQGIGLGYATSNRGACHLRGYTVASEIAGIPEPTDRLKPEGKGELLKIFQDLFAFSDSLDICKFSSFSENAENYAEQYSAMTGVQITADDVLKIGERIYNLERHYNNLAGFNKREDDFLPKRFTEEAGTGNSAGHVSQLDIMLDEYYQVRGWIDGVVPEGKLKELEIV
O=Cc1ccccc1 = test: purified protein; details: apparent Km, benzyl viologen 1 mM as electron acceptor, 50 mM HEPES pH 7.5, 35 °C, anaerobic
O=Cc1ccco1 = test: purified protein; details: apparent Km, benzyl viologen 1 mM as electron acceptor, 50 mM HEPES pH 7.5, 35 °C, anaerobic
O=C/C=C/c1ccccc1 = test: purified protein; details: apparent Km, benzyl viologen 1 mM as electron acceptor, 50 mM HEPES pH 7.5, 35 °C, anaerobic
CC(C)CC=O = test: purified protein; details: apparent Km, benzyl viologen 1 mM as electron acceptor, 50 mM HEPES pH 7.5, 35 °C, anaerobic

apparent Km for Fd as electron acceptor of BmWOR in the benzaldehyde oxidation assay (enzyme activity, Fd reduction followed at 425 nm) [1]: < 5 µM
Substance: Brevibacillus massiliensis ferredoxin (BmFd) (natural protein)

Substance: Tolualdehyde
Km (BmWOR): 6.1 ± 2.1 µM

Substance: BmWOR (Brevibacillus massiliensis)
Km (O=Cc1ccccc1): 4.2 ± 1.0 µM
Km (O=Cc1ccco1): 2.1 ± 2.0 µM
Km (O=C/C=C/c1ccccc1): 5.6 ± 1.2 µM
Km (CC(C)CC=O): 3.6 ± 0.9 µM
